# Laboratory results taken from the supplement of paper PMC9170038.
# Tested on: MS2 coat protein
# Test: apparent KD of MS2 coat protein; designed switch direction (-1 OFF switch, 1 ON switch): 1; higher = weaker reporter binding
# Method in brief: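 Apparent KD, taken as the median over clusters for each design, was obtained by curve-fitting normalised cluster fluorescence. Designed RNA switches had been transcribed on Illumina chips by stalled E. coli RNA polymerase and titrated with SNAP-549-labelled MS2 coat protein, doubling from 0.7 or 1.5 nM to 3 µM.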
# [1] = Eterna round: R95, input ligand: FMN 200 uM
# [2] = Eterna round: R95, input ligand: microRNA oligo, concentration not stated
# [3] = Eterna round: R95, input ligand: none
# [4] = input ligand: microRNA oligo, concentration not stated
Sequence,apparent KD of MS2 coat protein [1],apparent KD of MS2 coat protein [2],apparent KD of MS2 coat protein [3],apparent KD of MS2 coat protein (input ligand: FMN 200 uM),apparent KD of MS2 coat protein [4],apparent KD of MS2 coat protein (input ligand: none)
UAGUACAUGCUUUUUGUCCGUCUUAGAUAACAUGAGGAUCACCCAUGUAAGGUGAAAGUUAUAUAGUUUAGGAAUAU [JR_SHM208A_Sub057] (puzzle: Sensor for hsa-mir-208a),136 nM,323 nM,178 nM,–,–,–
"UCGAGCGUACUUGCAGACAUGAGGAUCACCCAUGUAAAUGGGAAGGAUAUGGUACCGUUUCGGUACCAGAAGGUCCUAAGUGAU [salish99_SSNG3_r04_302] (Eterna round: R96, puzzle: Same State NG 3)",–,–,–,574 nM,465 nM,1200 nM
"UAGUGAUUGCAAGGAUAUGCUUGUGUUUUAUUUUUUUUAAUAUCUAACAUGAGGAUCACCCAUGUGCAGAAGGUGCUUGAUUUG [JR_SSNG2_Sub076] (Eterna round: R96, puzzle: Same State NG 2)",–,–,–,–,46.5 nM,–
"UGUUGUAUUACAGGAUAUCUAGUAUUUUGAUUUAGAGAAGGGUAUUCACAUGAGGAUCACCCAUGUAUAUACGAGGAAGUUGUG [JMF's solution 44] (Eterna round: R96, puzzle: Same State NG 1)",–,–,–,–,44 nM,–
"GGUGGGUUGCUGCCGGCACAUGAGGAUCACCCAUGUUUUGGGAAGGAUAUGGUACCUUUUUGGUGCCAGAAGGUCCCGUUGGUG [salish99_SSNG3_r04_712 large U pivot] (Eterna round: R96, puzzle: Same State NG 3)",–,–,–,–,350 nM,–
"CACAAUCUAUCUGAGGAUAUCAUGAAAAAAACAUGAGGAUCACCCAUGUGCAGGAAAACUGCAUAUGAGAAGGCAGAUAGAUUGC [salish99_SS2_r3_013] (Eterna round: R96, puzzle: Same State 2)",–,–,–,–,452 nM,–
UUUAGUUGCGGGCAGGAUAUGUAUUAAAAUACAUGAGGAUCACCCAUGUGAGGUCAUAAAGACCUGCAGAAGGGCCAAUCGCGAC [Laonerce - 17] (puzzle: Same State 2),11.5 nM,86.8 nM,48.3 nM,–,–,–
"GUUACAUGAGGAUCACCCAUGUAUGUGUGGGAGUAAGUGUCUUAGGAUAUCUAGUAUUUAAGUUAAGAGAAGGAAGAUUGUUGU [JMF's solution 62] (Eterna round: R96, puzzle: Same State NG 3)",–,–,–,129 nM,78 nM,114 nM
"GAGUGGUAAAGAGGAUAUGCAUUGUUAUUAAAUGCAGAAGGUUUUAACAUGAGGAUCACCCAUGUAGGACUAUUCCUGUGUUUC [Parity 65 - Jieux - Same State NG 1] (Eterna round: R96, puzzle: Same State NG 1)",–,–,–,–,11.4 nM,–
GCCACACAUGAGGAUCACCCAUGUAAUUACAUGGGAGGAUAUCAGUGCUCGAAAGAGCACUGAGAAGGCCCGUGGC [SS1 - Omei A v4] (puzzle: Same State 1),120 nM,40.1 nM,309 nM,–,–,–
"CCAACAUACAAUUUAAGAUCACAUGAGGAUCACCCAUGUAUGCAGGAUAUCAGCUCGUGUAGAGCUGAGAAGGGCAAUUUAAUU [SSNG3/1-A4] (Eterna round: R96, puzzle: Same State NG 3)",–,–,–,103 nM,193 nM,265 nM
"CUGAGAUGUCAAGGAUAUCACGUCGAUUAGACGUGAGAAGGUGAUCUGCACAUGAGGAUCACCCAUGUGUUACAUGGAAUUCAG [Brourd's SSNG1/1-A2 mod 12] (Eterna round: R96, puzzle: Same State NG 1)",–,–,–,567 nM,278 nM,889 nM
"UUAUUAUUUAUAGGAUAUUGAUGUUUGCUAGUACAAGAAGGAUAAACAUGAGGAUCACCCAUGUAGUUUAAGGUUAGUUUGUUU [JR_SSNG1_Sub078] (Eterna round: R96, puzzle: Same State NG 1)",–,–,–,–,25.2 nM,–
"UAAAGAUAGCGAGGAUAUCGCGAGGAUCACCCGUGAGAAGGCGCAGAGCCGAGGAUCACCCGGCUGAUCCUGAGGAGGAGGUCA (Eterna round: R96, puzzle: Same State NG 1)",–,–,–,108 nM,197 nM,249 nM
"AGGCUCAGACUAGGAUAUAUGCGAUCACAUGAGGAUCACCCAUGUCUCGAGCUUCGGCUCGAGGCAUAGAAGGAGUCUGAGCCA [SSNG2/4-D1] (Eterna round: R96, puzzle: Same State NG 2)",–,–,–,17.1 nM,30.8 nM,57 nM
"ACAUGAGACUAAGGAUAUGGUGUACCUACAUGUGACAUGAGGAUCACCCAUGUGGUAAGUAUGACUCAGAAGGUAGAGAUAUGU [Equivalance 75 - Jieux - Same State NG 2] (Eterna round: R96, puzzle: Same State NG 2)",–,–,–,37.9 nM,280 nM,436 nM
"UGAACCUUCACAGGAUAUCAUGCGAAAAUUGCGUGAGAAGGGUGAAUGUGGUGUUCAUAGUUGCACAUGAGGAUCACCCAUGUA [SameState NG1 #52] (Eterna round: R96, puzzle: Same State NG 1)",–,–,–,107 nM,135 nM,156 nM
"AAUUAAUUAAUACAUGAGGAUCACCCAUGUAAUUAUUAGAUCAAGGAUAUCAGCUCGAUUAGAGCUGAGAAGGUGAUCACAUGU [SSNG3/18-A2] (Eterna round: R96, puzzle: Same State NG 3)",–,–,–,–,282 nM,–
"ACAUGAGAGAUAGGAUAUCUUGUACCUACAUGUGACAUGAGGAUCACCCAUGUGGUAAGUAUGAGGGAGAAGGGUCAGAUAUGU [Equivalence 45 - Jieux - Same State NG 2] (Eterna round: R96, puzzle: Same State NG 2)",–,–,–,–,42.7 nM,–
GUAGAAUAACUAGAGGAUAUCCGAGUGGUAACAUGAGGAUCACCCAUGUGAUGAAAGGAACAUGAGGAGAAGGCUAGAAGUAAUG [Mat - Same State 2 - Mod of JL - D81] (puzzle: Same State 2),17.5 nM,61.1 nM,48.1 nM,–,–,–
